Experimental data: patent US20210017278A1 (PROTHENA BIOSCIENCES, published 2021)

Experiments:
Assay in all cases: ELISA, peptide coated on plate, HRP secondary, A490
[1] = molecular target: T1, peptide HGDT (SEQ ID NO: 21)
T1 construct: Coated on ELISA plates; also called X1GDX2 peptide
T1 peptide: HGDT
Description: (§1) ELISA plates were coated with indicated peptides, blocked, and assayed with either NEOD001 or 2A4, as indicated. After washing, appropriate horseradish peroxidase-conjugated secondary antibodies were applied. The plate was then washed and developed with o-phenylenediamene, and absorbance was read at 490 nm.
(§2) ELISA plates were coated with peptides having the amino acid sequence HEDT (SEQ ID NO: 19), AEDS (SEQ ID NO: 20), or HGDT (SEQ ID NO: 21), blocked, and assayed with either NEOD001 (an antibody with a light chain having the amino sequence set forth as SEQ ID NO: 13 and a heavy chain having the amino acid sequence set forth as SEQ ID NO: 14) or 2A4 (ATCC Accession Number 9662), as indicated. After washing, appropriate horseradish peroxidase-conjugated secondary antibodies were applied. The plate was then washed and developed with o-phenylenediamene, and absorbance was read at 490 nm.

[2] = molecular target: T2, peptide AEDS (SEQ ID NO: 20)
T2 construct: Coated on ELISA plates; also called X1EDX2 peptide
T2 peptide: AEDS
Description: as §1, §2

[3] = molecular target: T3, peptide HEDT (SEQ ID NO: 19)
T3 construct: Coated on ELISA plates; also called X1EDX2 peptide
T3 peptide: HEDT
Description: as §1, §2

Measured: binding result

B1: NEOD001 (antibody, human IgG1, kappa, V domains shown)
VH: EVQLVESGGGLVQPGGSLRLSCAASGFTFNTYAMYWIRQAPGKGLEWVARIRSKSNNYAIYYADSVKDRFTISRDDSKNSLYLQMNSLKTEDTAVYYCARPYSDSFAYWGQGTLVTVSS
VL: DVVMTQSPLSLPVTPGEPASISCRSSQSLVHSTGNTYLHWYLQKPGQSPQLLIYKVSNRFSGVPDRFSGSGSGTDFTLKISRVEAEDVGVYYCSQSTHVPFTFGGGTKVEIKR
notes: It shares the CDRs of murine antibody 2A4; also called humanized version of antibody 2A4
binds: all assays above
